In PMC3374753 one finds Kd, stoichiometry N and Kd of the second site (two-site model, one site fixed to 16.6 μM) data, which are given here for five substances.

pKd: −log10 of the molar value.

The first test deals with retromer cargo-selective complex (CSC), trimer of VPS35, VPS29 and VPS26 (UniProt Q96QK1). The experiment in a line: ITC. In general terms: ITC needs no label: the signal is the heat of the interaction.
Substance “FN fragment of FAM21 (356-600) as used in ITC (domain or fragment)” showed a pKd of 4.94 and a stoichiometry N of 0.32.

For the substance “R20-21 for ITC (FAM21 1278-1341, Trp, His6) (domain or fragment)”, the negative logarithm of the Kd (pKd) was 4.78 to 5.60; the Kd of the second site (two-site model, one site fixed to 16.6 μM) came to 3 µM; the stoichiometry N came out at 0.49.

With “R21 for ITC (FAM21 1309-1341, Trp, His6) (domain or fragment)”, the pKd is 4.78 and the stoichiometry N amounted to 0.82.

For the substance “FC fragment of FAM21 (938-1341 without 1029-1047) as used in ITC (domain or fragment)”, the negative-log Kd (pKd) was 5.62 and the stoichiometry N turned out to be 0.42.

The substance “R19-20 for ITC (FAM21 1250-1317, Trp, His6) (domain or fragment)” gave a pKd of 5.17 and a stoichiometry N of 0.39.

The target is the same in another test. The experiment in a line: ITC. The source holds these as a separate data set.
The substance “R20-21 for ITC (FAM21 1278-1341, Trp, His6) (domain or fragment)” had a pKd of 5.49.

A word on the pKd: it is the Kd on a negative log10 scale, so that one unit is a factor of ten. The low end stands for a high Kd, the high end for a low Kd. The term stoichiometry N denotes a count of units in the complex or per binding partner.
